Data on 19 molecules can be found in patent US20190315864A1 (SUZHOU ALPHAMAB, published 2019).

Positions count from the first letter of the chain named.

The chains are these.
B1: CTLA4 heavy chain single domain antibody No. 128 (VHH)
VHH: QVQLQESGGGSVQAGGSLKLSCAASGYTDYTYNTSCMGWFRQTPGKERERVATVNKVGSTIYADSVKGRFTISKDNVKNTLYLQMNSLKPEDTAMYYCAARGSWSCSQFWGDFGYWGQGTQVTVSS
notes: Camel VHH expressed in E. coli (PET32b), nickel-purified
B2: CTLA4 heavy chain single domain antibody No. 119 (VHH)
VHH: QVQLQESGGGSVQAGGSLRLSCAASEYTYHTNCMGWFRQAPGKEREGLAVMNPSGGVTYFADSVKGRFTISRDNAKNTVYLQMNSLKPEDTAMYYCAAGRGRCSGYSGYYNEWGQGTQVTVSS
notes: as for B1
B3: CTLA4 heavy chain single domain antibody No. J39 (VHH)
VHH: QVQLQESGGGSVQAGGSLRLSCAPSRYSGALMGWFRQAPGKEREGVAVISRSGLTTYYADSVKGRFTISQDTAKNTIYLQMNSMKPEDTAMYYCVAAPEARAWSSRDPTGYNYWGQGTQVTVSS
notes: as for B1
B4: CTLA4 heavy chain single domain antibody No. 138 (VHH)
VHH: QVQLQESGGGSVQAGGSLTLSCAASGYANSNTCMGWFRQAPGKERERVAAISGVGTGTYYADSVKGRFTISRDNGKNTLFLQMNSLKPEDTAMYYCAAAPEGRAWCSRDPSGYNYWGQGTQVTVSS
notes: as for B1
B5: CTLA4 heavy chain single domain antibody No. C29 (VHH)
VHH: QVQLQESGGGSVQAGGSLRLSCAVSGYTYSGYCMGWFRQAPGKEREGVAAISRGDGSPGYADSVKGRFTISQDNAKNTLYLQMNSLKPEDTAMYYCAADVIPTETCSYGSWSGPNGYWGQGTQVTVSS
notes: as for B1
B6: CTLA4 heavy chain single domain antibody No. 165 (VHH)
VHH: QVQLQESGGGSVQTGGSLRLSCVVSGHSYSRKCMGWFRQAPGKEREEVATFYTGDGRTYYADSVKGRFTISQDNAKNTLYLQMNSLKPEDTGMYFCAADRRVNCDLLQSTFYNYRGQGTQVTVSS
notes: as for B1
B7: CTLA4 heavy chain single domain antibody No. J5 (VHH)
VHH: QVQLQESGGGSVQAGGSLRLSCAASGYTYSTYCMAWFRQVPEKERERVASIYTGGGTTYYADSVKGRFTISLDNAKNTLYLQMNSLKPEDTAMYYCAKSAARCDSSRDVNRLGYWGQGTQVTVSS
notes: as for B1
B8: CTLA4 heavy chain single domain antibody No. C16 (VHH)
VHH: QVQLQESGGGSVQAGGSLTLSCAASGYTGDLVAWFRQTPGKEREGVAAISRTGLTTYYADSVKGRFTISQDTAKNTGYLQMNSMKPEDTAMYYCVAGWHVGGTWYKTSSYDYWGQGTQVTVSS
notes: as for B1
B9: CTLA4 heavy chain single domain antibody No. C2 (VHH)
VHH: QVQLQESGGGSVQPGGSLRLSCAVSGFTFSGYCMAWVRQAPGKGLEWVASIHRRDGSTDYADSVKGRFTISKDNSKNTLYLQMSSLKPEDTAVYYCAADPARLSCSGRVNSEYKYRGQGTQVTVSS
notes: as for B1
B10: CTLA4 heavy chain single domain antibody No. J17 (VHH)
VHH: QVQLQESGGGSVQAGGSLRLSCAASGFTLSSYTMTWLRQAPGKGLEWVSTINSGGSTSYADSVKGRFAISRDNAKNILYLQLNSLEIEDTGMYYCQGGLTQRGQGTQVTVSS
notes: as for B1
B11: CTLA4 heavy chain single domain antibody No. J29 (VHH)
VHH: B10 VHH with S11L, A14P, L29I, R38H, S58A, I77T, E86K
notes: as for B1
B12: CTLA4 heavy chain single domain antibody No. J35 (VHH)
VHH: QVQLQESGGGSVQAGGSLRLSCAASGYTSGYYVMGWYRQAPGKLREFVSSIDSNGGTMYADSVKGRFTISQDNAKNTAHLQMNSLKPEDTAMYYCKRDSPGNFYWGQGTQVTVSS
notes: as for B1
B13: CTLA4 heavy chain single domain antibody No. C38 (VHH)
VHH: QVQLQESGGGSVQAGGSLRLSCAASRYTASSNCMAWFRQAPGKEREGVATIYNGGGSTAYADSVKGRFTISQDNAKNTVYLQMNSLKPEDTAMYYCGAGSPRFCASATMTGGHHLFGYWGQGTQVTVSS
notes: as for B1
B14: CTLA4 heavy chain single domain antibody No. J37 (VHH)
VHH: B13 VHH with S17T, A24V, R26G, Y27V, A29Y, S31P, N32H, A35G, T50A
notes: as for B1
B15: CTLA4 heavy chain single domain antibody No. C22 (VHH)
VHH: QVQLQESGGGSVQAGGSLRLSCTVSQHTSRYYYMAWFRQAPGKEREGVASIWTGGGTPGYADSAKGRFTISTDNAKNTIYLQMNSLKPEDTAMYYCAADDRGGRWSLGTMAVGGYKYWGQGTQVTVSS
notes: as for B1
B16: CTLA4 heavy chain single domain antibody No. J78 (VHH)
VHH: B15 VHH with T72A
notes: as for B1
B17: CTLA4 heavy chain single domain antibody No. J69 (VHH)
VHH: QVQLQESGGGLVQPGGSLRLSCAASGFTLSSYSMTWLRQAPGKGLEWVSTINSGGSTSYADSVKGRFAISRDNAKNTLYLQLNSLEIEDTGMYYCQGGLTRGQGTQVTVSS
notes: as for B1
B18: CTLA4 heavy chain single domain antibody No. 116 (VHH)
VHH: B17 VHH with A23E, L29F, S33T
notes: as for B1
B19: CTLA4 heavy chain single domain antibody No. J42 (VHH)
VHH: QVQLQESGGGSVQAGGSLRLSCAASGYTYSSYNSNCMGWFRQAPGKEREGVAAIDSDGSTSYADSVKGRFTISKDNAKNTLYLQMNSLKPEDTAMYYCAASPRTCEVFSLGGSWHLFGYWGQGTQVTVSS
notes: as for B1

The target of the first experiment is T1, CTLA4-Fc fusion protein (human, biotinylated where used as CTLA4-Fc-Biotin (Examples 5.1-5.3)).
T1 construct: expressed in HEK293 cells; also called human CTLA4-Fc protein; CTLA4-Fc antigen protein
The experiment can be described thus: competitive ELISA: CD80-Fc-Biotin signal on coated CTLA4-Fc with 500 ng VHH/well; competitor CD80-Fc-Biotin. As to the method:
SA-HRP (purchased from Sigma) was added and allowed to react for 1 hour at room temperature. After adding chromogenic solution, absorbance was read at 405 nm wavelength.
For orientation: ELISA stands for enzyme-linked immunosorbent assay.
Molecule B1 yielded an OD of 0.893 OD405.
Same read-out and setting: the figure for B2 is 2.53 OD405; for B3 it is 2.13 OD405; for B4 it is 1.92 OD405.
On the same count and under the same terms, next, B5: 2.43 OD405; B6: 1.84 OD405; B7: 2.5 OD405.
Still for that read-out and setting: next, B8: 1.89 OD405; B9: 2.52 OD405.
B10 displayed an OD of 2.53 OD405.
In the case of B11, the OD is 2.5 OD405.
On to B12, for which the OD turned out to be 2.57 OD405.
Same read-out and setting: next, B13: 2.28 OD405.
The same measure, in the same setting: next, B14: 1.06 OD405; B15: 2.47 OD405.
The same measure, in the same setting: next, B16: 2.41 OD405; B17: 2.34 OD405.
B18 gave an OD of 2.58 OD405.
The same measure, in the same setting: next, B19: 0.94 OD405.

A further experiment has as its target T1, CTLA4-Fc fusion protein. The experiment can be described thus: ELISA OD ratio, value equals OD(CTLA4)/OD(blank). On the procedure:
(§1) Plates were coated with CTLA4-Fc fusion protein overnight at 4° C. and 10 ng of the heavy chain single-domain antibody obtained in Example 2.1 (the control was a single domain antibody not binding to the CTLA4-Fc protein) was added to each well and allowed to react for 1 hour at room temperature. After washing, primary antibody anti-His tag antibody (purchased from Beijing Kangwei Century Biotechnology Co., Ltd.) was added and reacted for 1 hour at room temperature. After washing, a secondary goat anti-mouse horseradish peroxidase-labeled antibody (Yiqiao Shenzhou, Cat: SSA007200) was added and reacted for 1 hour at room temperature. After washing, chromogenic agent was added and the absorbance was read at 405 nm.
For the molecule B1, the ODa/ODb came to 45.3.
On the same count and under the same terms, next, B2: 19.2; B3: 62.4; B4: 65.8.
The same measure, in the same setting: the figure for B5 is 54; for B6 it is 43.4; for B7 it is 43.2.
Same read-out and setting: the figure for B8 is 63.8; for B9 it is 44; for B10 it is 50.
For B11, the ODa/ODb was determined as 51.4.
On the same count and under the same terms, the figure for B12 is 29.4.
Same read-out and setting: next, B13: 36.5.
On to B14, for which the ODa/ODb amounted to 42.9.
On the same count and under the same terms, next, B15: 30.3; B16: 22.6; B17: 22.7.
On the same count and under the same terms, the figure for B18 is 8.4; for B19 it is 38.8.

A further experiment deals with T1, CTLA4-Fc fusion protein. The experiment can be described thus: ELISA OD ratio, value equals OD(CTLA4)/OD(Fc). As to the method:
as §1
(§2) Plates were coated with Fc protein overnight at 4° C. and 10 ng of the heavy chain single domain antibody obtained in Example 2.1 was added to each well (control was a single domain antibody against other unrelated targets) and allowed to react for 1 hour at room temperature. After washing, an rabbit anti-human Fc antibody (purchased from Shanghai Pu Xin Biotechnology Co., Ltd.) was added and reacted for 1 hour at room temperature. After washing, goat anti-rabbit horseradish peroxidase labeled antibody (purchased from Shanghai Pu Xin Biotechnology Co., Ltd.) was added and reacted at room temperature for 1 hour. After washing, chromogenic agent was added and the absorbance was read at 405 nm.
B1: the ODa/OD blank worked out at 35.2.
As to B2, the ODa/OD blank amounted to 14.5.
Turning to B3, the ODa/OD blank stood at 41.6.
The same measure, in the same setting: the figure for B4 is 45; for B5 it is 17.8; for B6 it is 23.8.
With B7, the ODa/OD blank came out at 33.6.
Still for that read-out and setting: the figure for B8 is 33.7; for B9 it is 35.2.
Still for that read-out and setting: next, B10: 30.4.
Still for that read-out and setting: next, B11: 40; B12: 22.9; B13: 22.7.
As for B14, the ODa/OD blank is 35.3.
Still for that read-out and setting: the figure for B15 is 14.1; for B16 it is 5.2.
On the same count and under the same terms, next, B17: 17.2; B18: 5.1.
Still for that read-out and setting: next, B19: 24.1.

A further experiment addresses T1, CTLA4-Fc fusion protein. The experiment can be described thus: ELISA, CTLA4-Fc coated, 10 ng VHH/well. On the procedure: as §1
For B1, the “OD (against CTLA4)” value is 1.27 OD405.
Still for that read-out and setting: the figure for B2 is 0.537 OD405; for B3 it is 1.75 OD405; for B4 it is 1.84 OD405.
As for B5, the “OD (against CTLA4)” value worked out at 1.51 OD405.
The same measure, in the same setting: next, B6: 1.21 OD405; B7: 1.21 OD405.
Still for that read-out and setting: the figure for B8 is 1.79 OD405.
On the same count and under the same terms, the figure for B9 is 1.23 OD405; for B10 it is 1.4 OD405; for B11 it is 1.44 OD405.
Regarding B12, the “OD (against CTLA4)” value was 0.823 OD405.
Same read-out and setting: the figure for B13 is 1.02 OD405; for B14 it is 1.2 OD405; for B15 it is 0.848 OD405.
On the same count and under the same terms, the figure for B16 is 0.632 OD405; for B17 it is 0.635 OD405; for B18 it is 0.234 OD405.
Same read-out and setting: next, B19: 1.09 OD405.

Another experiment concerns the target T2, Fc protein.
T2 construct: Counter-screen for the Fc part of CTLA4-Fc
The experiment can be described thus: ELISA, Fc protein coated, 10 ng VHH/well. As to the method: as §2
With B1, the “OD (against Fc)” value is 0.036 OD405.
The same measure, in the same setting: the figure for B2 is 0.037 OD405; for B3 it is 0.042 OD405; for B4 it is 0.041 OD405.
Still for that read-out and setting: next, B5: 0.085 OD405.
Same read-out and setting: next, B6: 0.051 OD405.
For B7, the “OD (against Fc)” value came out at 0.036 OD405.
Still for that read-out and setting: next, B8: 0.053 OD405; B9: 0.035 OD405.
Same read-out and setting: next, B10: 0.046 OD405; B11: 0.036 OD405; B12: 0.036 OD405.
On to B13, for which the “OD (against Fc)” value was found to be 0.045 OD405.
The same measure, in the same setting: next, B14: 0.034 OD405; B15: 0.06 OD405.
The same measure, in the same setting: the figure for B16 is 0.121 OD405.
Same read-out and setting: the figure for B17 is 0.037 OD405.
For B18, the “OD (against Fc)” value was determined as 0.046 OD405.
The same measure, in the same setting: the figure for B19 is 0.045 OD405.
